We go through two molecules from paper PMC5041495.

In data set [1] the target is T1, VEGF164 (mouse, UniProt Q00731-2 27-190).
T1 sequence: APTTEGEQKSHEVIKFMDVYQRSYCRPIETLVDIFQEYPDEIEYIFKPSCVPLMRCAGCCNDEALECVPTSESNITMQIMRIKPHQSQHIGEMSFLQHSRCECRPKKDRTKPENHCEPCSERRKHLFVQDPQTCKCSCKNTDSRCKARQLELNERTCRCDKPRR
Kind of data set: BLI. (Biolayer interferometry detects binding as a change in optical thickness at a sensor tip.)

Data set [2] concerns the target T2, alpha-thrombin (human, UniProt P00734;P00734 328-363;364-622). Kind of data set: SPRi.
In data set [3] the target is VEGF165 (human, UniProt P15692-4 27-191). The data set is described as follows: BLI.
For data set [4], the target named is MAPK1 (UniProt P28482 1-360). Kind of data set: BLI.
In data set [5] the target is T2, alpha-thrombin. Kind of data set: BLI.
Data set [6] concerns the target T2, alpha-thrombin. Kind of data set: BLI. The source holds these as a separate data set.
The target of data set [7] is T2, alpha-thrombin. The data set is described as follows: BLI. The source holds these as a separate data set.

Sequence of MAPK1 (P28482 whole entry): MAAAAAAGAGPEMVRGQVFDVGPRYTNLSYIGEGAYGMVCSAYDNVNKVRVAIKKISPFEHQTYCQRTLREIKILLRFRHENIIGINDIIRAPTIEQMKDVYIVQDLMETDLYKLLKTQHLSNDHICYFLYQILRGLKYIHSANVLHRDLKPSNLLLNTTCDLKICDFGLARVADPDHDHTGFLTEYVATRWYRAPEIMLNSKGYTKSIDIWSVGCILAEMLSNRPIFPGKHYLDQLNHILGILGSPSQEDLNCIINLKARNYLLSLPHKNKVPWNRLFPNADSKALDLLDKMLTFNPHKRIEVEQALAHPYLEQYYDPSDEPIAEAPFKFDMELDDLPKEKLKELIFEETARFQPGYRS

B1: AF113-18 (structured_RNA)
RNA: GGGAACAAAGCUGAAGUACUUACCC
modifications: 2'-F pyrimidines; PS2 at 3'-phosphate of U17
The term Kd denotes the constant that tells how readily two partners part at equilibrium. Higher therefore signals weaker binding. Regarding B1, the binding result in data set [1], in data set [3] and in data set [4] was “no binding” in each case. The equilibrium dissociation constant (Kd) came out at 4.5 ± 0.2 pM in data set [2], 1.8 ± 0.2 pM in data set [5] and 1 ± 0.1 pM in data set [6].

B2: AF113-1 (structured_RNA)
RNA: GGGAACAAAGCUGAAGUACUUACCC
modifications: 2'-F pyrimidines (from crystal construct; ST-2 not in material)
In the case of B2, in data set [7], binding was characterised by a dissociation constant (Kd) of 1870 ± 36 pM. The binding result in data set [1], in data set [3] and in data set [4] was “no binding” throughout.
